In series [1] the test system is HEK cells. As to the kind of experiment: Photocurrents under voltage clamp. Format: cell-based. The conditions noted are these: for Photocurrent: HEK cells clamped at V=0, 640 nm, 1800 W/cm^2. How it is done:
Measurements of photocurrents were performed on HEK cells held in voltage clamp at 0 mV while being exposed to brief (200 ms) pulses of illumination at 640 nm at an intensity of 1800 W/cm^2.

Series [2] is described as follows: pKa of the Schiff base from absorption spectra versus pH. Particulars: singular value decomposition on absorption spectra, pH 6-11. Format: physicochemical. As for the experimental part:
FIG. 8C illustrates absorption spectra recorded on purified protein between about pH 6 and about pH 11. Singular Value Decomposition of absorption spectra between 400-750 nm was used to calculate the fraction of the SB in the protonated state as a function of pH. The result was fit to a Hill function to determine the pKa of the SB.
(§1) (2) Spectroscopic characterization of Arch WT and D95N. The absorption spectra of fractionated E. coli membranes containing Arch WT and D95N were determined using an Ocean Optics USB4000 spectrometer with a DT-MINI-2-GS light source (FIG. 8). The peak extinction coefficients of microbial rhodopsins vary across rhodopsin types from 48,000 to 63,000 M^−1 cm^−1. Due to the high homology between Arch and bacteriorhodopsin (BR), the BR extinction coefficient, 63,000 M^−1 cm^−1, was used for Arch. […] For Arch WT, 633 nm was in the tail of the absorption while for Arch D95N 633 nm lay halfway down the shoulder. The relative extinction coefficients of Arch WT and D95N at 633 nm was independent of the choice to use BR as the reference for the peak extinction coefficient. Absorption spectra for Arch WT and D95N were measured as a function of pH between pH 6 and 11.

Series [3] relates to HEK cells. The series can be described thus: Frequency response and noise of membrane potential estimated from fluorescence. Format: cell-based. The conditions noted are these: for noise / accuracy of voltage estimated from fluorescence: HEK cells, after calibration with voltage ramp −150 to +150 mV; for Noise in V̂FL: frequencies f≧0.1 Hz in HEK cells. As for the experimental part:
For the data of FIG. 9, a chirped sine wave with an amplitude of about 50 mV and frequency from about 1 Hz to about 1 kHz was applied to the cell. Membrane potential VFL was determined from fluorescence and the Fourier transform of VFL was calculated. The uptick at about 1 kHz is an artifact of electronic compensation circuitry. […] The noise figures reported here are specific to our imaging system and serve primarily as an indicator of the possible sensitivity of Arch.
(8) Frequency-dependent response functions of Arch WT and D95N. Test waveforms consisted of a concatenated series of sine waves, each of duration 2 s, amplitude 100 mV, zero mean, and frequencies uniformly spaced on a logarithmic scale between 1 Hz and 1 kHz (31 frequencies total). The waveforms were discretized at 10 kHz and applied to the cell, while fluorescence movies were acquired at a frame rate of 2 kHz.
The model parameters for extracting VFL(t) were calculated from the fluorescence response to low frequency voltages. These parameters were then used to calculate an estimated voltage at all frequencies.
The applied voltage was downsampled to 2 kHz to mimic the response of a voltage indicator with instantaneous response. For each applied frequency, the Fourier transform of VFL(t) was calculated and divided by the Fourier transform of the downsampled V(t). The amplitude of this ratio determined the response sensitivity. It was important in some cases to properly compensate pipette resistance and cell membrane capacitance to obtain accurate response spectra.
The power spectrum of VFL(t) under constant V=0 was also measured to enable calculations of signal-to-noise ratio for any applied V(t).
In these examples, a measure of the performance of a voltage indicator which reported the information content of the fluorescence signal was used, including an algorithm to infer membrane potential from a series of fluorescence images. The accuracy with which the estimated membrane potential matched the true membrane potential was used (as reported by patch clamp recording) as a measure of indicator performance.
The estimated membrane potential, VFL(t), was determined from the fluorescence in two steps. First a model was trained relating membrane potential to fluorescence at each pixel. A highly simplified model that the fluorescence signal, Si(t), at pixel i and time t, is given by: […]

Series [4] in a line: Spectroscopic characterization of Arch WT and D95N (absorption, emission, extinction, quantum yield). Format: physicochemical. Particulars: for λmax em: Excitation at λ=532 nm; for ε633: assuming same peak extinction coefficient as Bacteriorhodopsin, 63,000 M^−1 cm^−1; for QY (fluorescence quantum yield): comparison to Alexa 647, excitation at λ=633 nm; for λmax abs: neutral pH. As for the experimental part:
Arch and its D95N mutant were expressed in E. coli. Briefly, E. coli (strain BL21, pet28b plasmid) was grown in 1 L of LB with 100 micrograms/mL kanamycin, to an O.D 600 of 0.4 at 37° C. All-trans retinal (5 micromolar) and inducer (IPTG 0.5 mM) were added and cells were grown for an additional 3.5 hours in the dark. Cells were harvested by centrifugation and resuspended in 50 mM Tris, 2 mM MgCl2 at pH 7.3 and lysed with a tip sonicator for 5 minutes. The lysate was centrifuged and the pellet was resuspended in PBS supplemented with 1.5% dodecyl maltoside (DM). The mixture was homogenized with a glass/Teflon Potter Elvehjem homogenizer and centrifuged again. The solubilized protein in the supernatant was used for experiments.
as §1
The fluorescence emission spectra of Arch WT and D95N were determined using illumination with a 100 mW, 532 nm laser (Dragon Lasers, 532GLM100) or a 25 mW, 633 nm HeNe laser (Spectra-Physics) (FIG. 8). Scattered laser light was blocked with a 532 nm Raman notch filter (Omega Optical, XR03) or a 710/100 emission filter (Chroma), and fluorescence was collected perpendicular to the illumination with a 1000 micron fiber, which passed the light to an Ocean Optics QE65000 spectrometer. Spectra were integrated for 2 seconds. Arch WT and D95N both had emission maxima at 687 nm.
The fluorescence quantum yields of Arch WT and D95N were determined by comparing the integrated emission intensity to emission of a sample of the dye Alexa 647. Briefly, the concentrations of micromolar solutions of dye and protein were determined using a visible absorption spectrum. The extinction coefficients of 270,000 M^−1cm^−1 for Alexa 647 and 63,000 M^−1 cm^−1 for Arch WT and D95N were used, assuming that these microbial rhodopsins have the same extinction coefficient as bacteriorhodopsin. […] The fluorescence emission spectra of dye and protein samples were measured with 633 nm excitation. The quantum yield was then determined by the formula
where Fl is the integrated fluorescence from 660 to 760 nm, epsilon (∈) is the extinction coefficient at 633 nm and c is the concentration.

Where two headings read alike, the source gives them in different places.

B1: Arch D95N: Archaerhodopsin 3 with aspartic acid 95 mutated to asparagine; non-pumping voltage indicator (protein, UniProt P96787 7-258, looked up, variant D95N)
Archaerhodopsin-3: QAGYDLLGDGRPETLWLGIGTLLMLIGTFYFLVRGWGVTDKDAREYYAVTILVPGIASAAYLSMFFGIGLTEVTVGGEMLDIYYARYANWLFTTPLLLLDLALLAKVDRVTIGTLVGVDALMIVTGLIGALSHTAIARYSWWLFSTICMIVVLYFLATSLRSAAKERGPEVASTFNTLTALVLVLWTAYPILWIIGTEGAGVVGLGIETLLFMVLDVTAKVGFGFILLRSRAILGDTEAPEPSAGADVSAAD
B1: in series [1], the “photocurrent / proton pumping (words)” value is “lacked endogenous proton pumping” and the Photocurrent entry is recorded as “no”. For the same molecule, in series [1] (listed as Arch 3 D95N), the “photocurrent / proton pumping (words)” value is on record as “lacks photoinduced proton pumping”. For the same molecule, the “photocurrent / proton pumping (words)” value in series [1] (listed as D95N) is recorded as “eliminated the photocurrent”. Further, the “pKa of SB” value in series [2] is 8.9. Also, in series [3], the “noise / accuracy of voltage estimated from fluorescence” value is reported as 260 μV/(Hz)^1/2 and the “Noise in V̂FL” value is recorded as 260 μV/Hz^1/2. For the same molecule, in series [4], the λmax em worked out at 687 nm, the ε633 is listed as 37,500 M^−1 cm^−1, the “QY (fluorescence quantum yield)” value was 4 × 10^−4 and the λmax abs came out at 585 nm. Besides, in series [4] (listed as Arch^D95N), the λmax abs entry is listed as “about 585 nm”. For the same molecule, the λmax abs in series [4] (listed as D95N) came out at 585 nm.

B2: Archaerhodopsin 3 (protein)
chain: MDPIALQAGYDLLGDGRPETLWLGIGTLLMLIGTFYFLVRGWGVTDKDAREYYAVTILVPGIASAAYLSMFFGIGLTEVTVGGEMLDIYYARYADWLFTTPLLLLDLALLAKVDRVTIGTLVGVDALMIVTGLIGALSHTAIARYSWWLFSTICMIVVLYFLATSLRSAAKERGPEVASTFNTLTALVLVLWTAYPILWIIGTEGAGVVGLGIETLLFMVLDVTAKVGFGFILLRSRAILGDTEAPEPSAGADVSAAD
modifications: Halorubrum sodomense
notes: Microbial rhodopsin from Halorubrum sodomense, light-driven proton pump used as fluorescent voltage indicator; experiments used an Arch-eGFP fusion
On to B2, for which, in series [1], the Photocurrent result is “yes”. The “outward photocurrent induced by imaging laser” value in series [1] (HEK cells, 640 nm) is 10-20 pA. The “pKa of SB” value in series [2] was found to be 10.1. Also, in series [3], the “noise / accuracy of voltage estimated from fluorescence” value was “about 625 μV/(Hz)^1/2” and the “Noise in V̂FL” value is 625 μV/Hz^1/2. For the same molecule, the “fluorescence oscillation amplitude retained relative to low-frequency amplitude” value in series [3] (sinusoidal membrane potential, f≈1 kHz) is listed as “about 55%”. The “shot-noise limited noise floor in V̂FL” value in series [3] (voltage clamp at constant V=0 mV, frequencies above about 10 Hz) is listed as “about 470 μV/(Hz)^1/2”. In series [4], the λmax em is reported as 687 nm, the ε633 was 6,300 M^−1 cm^−1, the “QY (fluorescence quantum yield)” value is reported as 9 × 10^−4 and the λmax abs turned out to be 558 nm. In addition, in series [4] (listed as Arch), the λmax em result is recorded as “≈ 687 nm” and the “QY (fluorescence quantum yield)” value is on record as “about 9×10^−4”.

The values above are taken from patent US20150004637A1, “SYSTEMS AND METHODS FOR IMAGING AT HIGH SPATIAL AND/OR TEMPORAL PRECISION” (President and Fellows of Harvard College, priority 2011, published 2015).
